According to a protein production outcome set (Wang et al. 2014):

Assay: label from the status in PepcDB records

| Sequence | protein production |
| --- | --- |
| MSEPMSERERWQLELDKLQRGLQGDPFAFLGPQRDPGGEGGVLRAYLPGAQRVELLDEDGATLAELEQSDPGSGLFQRHLERLPPRYRLRVHWPDGVQESEDPYAFGPLLGELDLYLFAEGNHRQLASCLGAQLTRHEGVEGVRFAVWAPNAVRVSVVGDFNGWDGRRHPMRRRYPSGVWELFVPRLGEGELYKYELQGHDGLLPLKADPLALACETPPGTASKTCAALRHEWRDQDWLARRAERQGYAAP | failed |
| MSEPVFPTPEAAEDAFYAAFEARSLDDMMAVWARDDHVACIHPLAAPLNGRAAVAAGWRSMFGAAGRFRLQVKAVHEIRQADHVIRIVDEFLTIGDETAPRPAILATNVYRREADGWRMVLHHASPLQVGAKAGADTPPVVFH | not failed |
| MSEPYGKAFSLMRAEAEPAWRAYTHHAFVEGLKAGTLPREAFLHYLQQDYVFLIHFSRAWALAVVKSETHSEMLAAVGTVNALVAEEMQLHIGICEASGISQEALFATRERAENLAYTRFVLEAGYSGDLLDLLAALAPCVMGYGEIGKRLTAEATSTLYGDWIDTYGGDDYQAACKAVGTLLDDALERRLGAEFTSSPRWSRLCQTFHTATELEVGFWQMGLTP | not failed |
| MSEQNEKEGAVGSLERGLLIIRVLLDAPGPMSLAELAQELALGPSTVHRLLGTLTKLGQVVREPRGKRYLAAPQVLASLSFQHPITLVRLACRSAIEELRERTGETSAFVLFIGYERLVQDFVIGQRLLSPNYQTWLRSPMHGSASGKLLLSTVPENNWVDLIGHEPYQAHTPSTITTYEEMVAEIQAIRRQHYCVSKNEGYEGVSAFGYPVVVLGKTVGCITLTVESASLNESREAFLIQEMLRCVKSIQAVSGSLKLLHDWLF | failed |
| MSERPVQSKLNNALNILKQGDLRGSYAELERLLRDDLENAEIDYTLKGVRFWEDKLEKAKKASTPLERAEMMISQWKPFLAYIHRQGEEKESIIYSLKCAVFTIALEFYADLFNEESELPDAEPYRKIGLCYKVLGNYERALDFLRYAAEIDKNSGSVLADLADCYALYGEIKFAKAFFREAFFIDPEGIELQFLESEIICRLINRVYNLGYRVEDIADWLPIYGVIDGVFNVKRELRAFEVGQLKQNIFLMEGEVQNASQEQKHKLVPRLINHYFWLIDHYVSVNESKSKIDDLLLRIKVLDQNIYNCYMR | failed |
| MSESLDFSPYLERWALQPDGEPFATHSSRLLPVRHRGAAAMLKISSAEEERFGHVLLNWWDGQGAARVLAYDHQALLMERATGGRSLLEMVRRGDDDEATRILCQAIERIHAPRPGPLPELTPLERWFDSLYAAERRYGGLYVDCANAARYLLETAREQRPLHGDIHHGNVLDFGERGWQVIDPKRLYGERGYDYANLFTNPDAKTAQAPGRFERQLEIVIAASGLQRRRLLQWILAWTGLSAAWFDEDGSREETEAELAIARLALANLARTPAQ | failed |
| MSESPTAGRASLAPLREFITGLSALLDEQPGEARILREGGALLARLVARDDWLPDAFAQPHPEYYQQMLLHCDSAERFSIVSFVWGPGQRTPIHDHTVWGLIGMLRGAEYSQPFVLDGSGRPVLHGEPTRLEPGHVEAVSPTVGDIHRVHNAYDDRVSISIHVYGANIGGVRRSVYTEAGERKPFISGYSNPYLPNPWDRSKDSAAS | not failed |
| MSETERTLVIIKPDAVVRGLIGEIISRFEKKGLKIVGMKMIWIDRELAEKHYEEHREKPFFKALIDYITKTPVVVMVLEGRYAVEVVRKMAGATDPKDAAPGTIRGDFGLEVSDAICNVIHASDSKESAEREISLFFKPEELFEYPRAADWFYKKGI | not failed |
| MSETPERGLGSRAGVVLVDRYRLDERIGVGGMGEVWRATDILLSRPVAVKLLHLAQVSDPVSQQRFRTEAQITAALSHPNIAQVYDYGEQDGFSFLVMELITGESLSAIIKRNPGLDPDITLDVVDQAAQALSAAHANGVIHRDIKPGNLLVTEDGTVKLTDFGIARGNESVTLTQTGMVMGTAQYISPEQVSGKPASPLSDIYALGIVAYECLAGHPPFTADTPLALALAHSREPPPPLPDSVPPAVRELVECMLAKDPQERPSSAAEVSQWAQRLRAALNGGDATEALGLVSATAATAVVPAQPGPPTGDSTPVDGPHSGAQAQTWPPPQGKDSDRVAERSAAPNSRLNLPVVFALIATVGAVAVGIFLVGLLGKEPGTNGTPTSHRSVVPTLSRSPDTTENITTDSQTPVPDNPGGQLPPLNDEPEESYSPAPHPEPTTPPQSEYPSPPGDGADSTPDPGEEPGGPSDEDDADGGGAAPGGPTGGTGEESRGSTPP | failed |
| MSEVILDIMNNELVSSLILRELIQYRRRFTHSTKSVSEEESQVTQVQLPRIRTFVDEGRRVELILPAFPVKSPSPYKVLGRMPDMAERLSLIFLNSLCQRIQLYYPPGAHIRICSDGHVFGDLIGTSDETINTYQDEIENLLHELGAVHLSVFNLKDVENMAALTADYGHLRQRLVEDYAESAEEIKEQLMQSEEGLQLYRSITRFLYEDSLRPDYTGSNAALQKDAKKRACGVIQRSWAWGNLLAENFPDAIRLSIHPQPADSLKLGIHMMPTKDDWLTPWHGVAANVNGQFVLMKNTDAQQLAGEVVEIRGTPSHYLVKQSDVA | failed |
| MSEVKKTKVHLISGFLGTGKTTALKSLMAQKDPNEKWVIIVNEFGEIGIDGAVLSDNGIPVAEIAGGCLCCTAGPQMGVTVQKMLRDAKPDRLMIEASGLAHAASVIDELKAKPLDSLLEIGAVFTVVDPRQFINPDYAQQALYKDQIGICDVLAASKTDLCTPEQLAEFHDKAAKLFPPKAKVVEVQNAQLDIQWLDIPVVEKSRYRLKALPDNTMGFQSQGFTFPAGRDFNGEKLTNFFNDLPKMTEGLVRAKGVFQVLGTWVWLNWVDGQWGANQVSWRRDSRFELIAKSFDADLIEQKLKDALELEHHHHHH | not failed |
| MSEVQITFRKAREQDLMTYFNWANDEVTRKNSFGTNKIDLKTHTEWFLKKISSPDSLLLVFEDAAKIPVGQVRIECGEEEAVIGISIDSAFRGKSLSAFMIDSACTEYFRNFTKPIAAHIKATNTASVKAFEKAGFILKEEYTVDQELRFILLRQHV | failed |
| MSFFKLKENNTSFKTEVIAGLTTFLAMVYIIPVNSSIVGNTGMPIEALITATALITIVASAFNAFFANTPVAMSVGMGLNAYFTFAVCLGQNIAWQSALGAVFISSIIFLILSFTHFRLWVIRNIPKDLRLAICAGIGCFIAFLGLSQMGVIMHNKDTLVSIGNFKSPHVLFGIFTLALIIFFWAIKLLGAFILGVLASSIIAWIFHLDNASFPVQIFSWPNFSMENGLGAIFLQLDIKSALNITMIPIILTFFITQLFDSIGTITGVGERGKIFDDPKNGEKKLSKTLMADATGSALGAMTGTSTVTAFVESTTGVESGGRTGLTALVVAICFAFTLFLLPLFKAIPANAIYPVLVMVGILMFMEVKNIDFKDSAIAVASFFTIIMMPFTYSITTGFAFGFLSYLLVRIFKREWDKINLGIIVLSLLSLGNFLLMALQ | failed |
| MSFIVCMSVLGVLLMLLALTSSYLRWMPVTTSAVCLAFGFGIGPLGLDIINLDFKQSREWLECLTEVAVLFSLFGTGIKLRLPLNCKAWHSAYWLAGPVMLATIAGVSVAAHYIFAIDWGVALLLGAMLSPTDPVLAGMVQVNSAQDQDRLRFGLSGEAGLNDGTAFPFVIFAMLYLSSGGVTGDWAQHWLLKDLIWAVPAGLLIGFGMGRGVGHLMIFLRIKNADSTTSPNDFLALALIALAYVVAEGFGAFGFLSVFAAGFGLRQAEMRVTRSELPSEHVAQPVLGHMTAALDQGTVAKADDLSDSQLAAGVMMGDMLAFGSLVERAMEVLLITLLGAALASYWDWRAIGLGLALFCVIRPASVWLLVSQKLLNARQKALVGWFGIRGIGSLYYLCFALSHGLADDVGNVVIGMTLSVVALSILLHGISIQPLLERYERSTAANPDK | failed |
| MSFVKKTKNFFGLDGEADPYMEHSDAYYDEPRYEPAPAYSAPRYEEPIYASARPRAARPMPTHIVPVRLLTYSDAAIKVGDPFRDGDAVVFDMSDMHKGEAKRIIDFAAGLCFALRGQMRKLDGRIFALVPESASVDENDLKHAAGLIHLEHHHHHH | failed |
| MSGADTKKKLVGRHKRVAFMDVAGDGKTYTRMTGFTSMSESKNASEYSRHYVDEESERTDVVGYAPSNDYEFDRYTNDLVQQKISEITDDELLGSDAQVSIVVVDLFDIKTDTPNTCVARKRDWSVVPDNSGDGTDALIYKGSLKANGEKIKGTATTTDNWQTCTFAAD | failed |
